Where two headings read alike, the source gives them in different places.
Key:
Assay type in all cases: binding, HCV genotype 1b, isolate con1
[1] = molecular target: T1, HCV ORFs (Gal4-DB fusions) (Hepatitis C virus genotype 1b, UniProt Q9WMX2); conditions: human protein as prey
T1 construct: expressed in transfected cells; host or cells: Saccharomyces cerevisiae MAV203 (IMAP1) / AH109 (IMAP2)

[2] = test system: HCV ORFs (Gal4-DB fusions); conditions: human protein listed by gene symbol; the value names the HCV protein it interacts with
[3] = molecular target: T2, GST-tagged viral proteins (Hepatitis C virus genotype 1b, UniProt Q9WMX2); experiment: Validation by co-affinity purification (CoAP); design: key: +: IMAP validation; −: not validated; NA: non assayable due to default of protein expression or to cellular protein directly interacting with GST
T2 construct: expressed in transfected cells; host or cells: HEK-293T
Description: C. Validation of Y2H interactions by co-affinity purification assay. Nine co-AP positive assays are shown, representing: NS5A-SORBS2 (1), NS3-CALCOCO2 (2), NS5A-BIN1 (3), NS5A-MOBK1B (4), NS5A-EFEMP1 (5), NS3-PSMB9 and NS5A-PSMB9 (6), NS5A-PPPIRI3L (7), NS3-RASAL2 (8). After pull-down with GST tagged viral baits (+) or with negative control GST alone (−), cellular preys are identified with anti-Flag antibody. Anti-GST antibody identifies either GST alone or GST-tagged viral baits. Expression of cellular preys in cell lysate is controlled by anti-Flag (bottom panel). […]
A random pool of 59 IMAP Y2H interactions was chosen for CoAP assays. Cellular ORFs (interacting domains found in Y2H screens) were cloned by recombinational cloning from a pool of human cDNA library or the MGC cDNA plasmids using KOD polymerase (Toyobo) into pDONR207 (Invitrogen). After validation by sequencing, these ORFs were transferred to pCi-neo-3xFLAG gateway-converted, and HCV ORFs were transferred into pDEST27 (GST fusion in N-term). HEK-293T cells were then co-transfected (JetPei, Polyplus) by each pair of plasmid encoding interacting proteins. Controls are GST alone against 3xFLAG-tagged preys. Two days after transfection, cells were harvested and lysed (0.5% NP-40, 20 mM Tris-HCl (pH 8.0), 180 mM NaCl, 1 mM EDTA, and complete protease inhibitor cocktail). Cell lysates were cleared by centrifugation for 20 min at 13,000 rpm at 4° C. and soluble protein complexes were purified using Glutathione Sepharose 4B beads (GE Healthcare). Beads were then washed extensively four times with lysis buffer and proteins were separated on SDS-PAGE and transferred to nitrocellulose membrane. GST-tagged viral proteins and 3xFLAG-tagged cellular proteins were detected using standard immunoblotting techniques using anti-GST (Covance) and anti-FLAG M2 (Sigma) monoclonal antibodies (21).

[4] = interaction with HCV protein NS5A
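For IMAP Y2H IMAP2 (number of IST) in this document: yeast two-hybrid screens using HCV genotype 1b proteins fused to Gal4-DB as baits against prey cDNA libraries from human spleen and foetal brain, IMAP1 via transformation and IMAP2 via mating.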
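For Interaction with viral protein in this document: yeast two-hybrid screens using HCV genotype 1b proteins fused to Gal4-DB as baits against prey cDNA libraries from human spleen and foetal brain, IMAP1 via transformation and IMAP2 via mating.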

| Molecule | IMAP Y2H IMAP2 (number of IST) ([1]; HCV protein NS5A as bait) | IMAP Y2H IMAP2 (number of IST) ([1]; HCV protein NS5B as bait) | Interaction with viral protein [2] | CoAP [3, 4] | IMAP Y2H IMAP2 (number of IST) ([1]; HCV protein NS3 as bait) | CoAP ([3]; validation of interaction with HCV protein NS3) |
| --- | --- | --- | --- | --- | --- | --- |
| MOBK1B (protein, UniProt Q7L9L4 2-216, looked up) MOB kinase activator 1B: SFLFGSRSSKTFKPKKNIPEGSHQYELLKHAEATLGSGNLRMAVMLPEGEDLNEWVAVNTVDFFNQINMLYGTITDFCTEESCPVMSAGPKYEYHWADGTNIKKPIKCSAPKYIDYLMTWVQDQLDDETLFPSKIGVPFPKNFMSVAKTILKRLFRVYAHIYHQHFDPVIQLQEEAHLNTSFKHFIFFVQEFNLIDRRELAPLQELIEKLTSKDR | 5 | 3 | NS5A | + | – | – |
| ITGAL (protein, UniProt P20701 26-1170, looked up) Integrin alpha-L: YNLDVRGARSFSPPRAGRHFGYRVLQVGNGVIVGAPGEGNSTGSLYQCQSGTGHCLPVTLRGSNYTSKYLGMTLATDPTDGSILACDPGLSRTCDQNTYLSGLCYLFRQNLQGPMLQGRPGFQECIKGNVDLVFLFDGSMSLQPDEFQKILDFMKDVMKKLSNTSYQFAAVQFSTSYKTEFDFSDYVKRKDPDALLKHVKHMLLLTNTFGAINYVATEVFREELGARPDATKVLIIITDGEATDSGNIDAAKDIIRYIIGIGKHFQTKESQETLHKFASKPASEFVKILDTFEKLKDLFTELQKKIYVIEGTSKQDLTSFNMELSSSGISADLSRGHAVVGAVGAKDWAGGFLDLKADLQDDTFIGNEPLTPEVRAGYLGYTVTWLPSRQKTSLLASGAPRYQHMGRVLLFQEPQGGGHWSQVQTIHGTQIGSYFGGELCGVDVDQDGETELLLIGAPLFYGEQRGGRVFIYQRRQLGFEEVSELQGDPGYPLGRFGEAITALTDINGDGLVDVAVGAPLEEQGAVYIFNGRHGGLSPQPSQRIEGTQVLSGIQWFGRSIHGVKDLEGDGLADVAVGAESQMIVLSSRPVVDMVTLMSFSPAEIPVHEVECSYSTSNKMKEGVNITICFQIKSLIPQFQGRLVANLTYTLQLDGHRTRRRGLFPGGRHELRRNIAVTTSMSCTDFSFHFPVCVQDLISPINVSLNFSLWEEEGTPRDQRAQGKDIPPILRPSLHSETWEIPFEKNCGEDKKCEANLRVSFSPARSRALRLTAFASLSVELSLSNLEEDAYWVQLDLHFPPGLSFRKVEMLKPHSQIPVSCEELPEESRLLSRALSCNVSSPIFKAGHSVALQMMFNTLVNSSWGDSVELHANVTCNNEDSDLLEDNSATTIIPILYPINILIQDQEDSTLYVSFTPKGPKIHQVKHMYQVRIQPSIHDHNIPTLEAVVGVPQPPSEGPITHQWSVQMEPPVPCHYEDLERLPDAAEPCLPGALFRCPVVFRQEILVQVIGTLELVGEIEASSMFSLCSSLSISFNSSKHFHLYGSNASLAQVVMKVDVVYEKQMLYLYVLSGIGGLLLLLLIFIVLYKVGFFKRNLKEKMEAGRGVPNGIPAEDSEQLASGQEAGDPGCLKPLHEKDSESGGGKD | 1 | – | NS5A | + | – | – |
| RASAL2 (protein, UniProt Q9UJF2 1-1139, looked up) Ras GTPase-activating protein …: MQTPEVPAERSPRRRSISGTSTSEKPNSMDTANTSPFKVPGFFSKRLKGSIKRTKSQSKLDRNTSFRLPSLRSTDDRSRGLPKLKESRSHESLLSPCSTVECLDLGRGEPVSVKPLHSSILGQDFCFEVTYLSGSKCFSCNSASERDKWMENLRRTVQPNKDNCRRAENVLRLWIIEAKDLAPKKKYFCELCLDDTLFARTTSKTKADNIFWGEHFEFFSLPPLHSITVHIYKDVEKKKKKDKNNYVGLVNIPTASVTGRQFVEKWYPVSTPTPNKGKTGGPSIRIKSRFQTITILPMEQYKEFAEFVTSNYTMLCSVLEPVISVRNKEELACALVHILQSTGRAKDFLTDLVMSEVDRCGEHDVLIFRENTIATKSIEEYLKLVGQQYLHDALGEFIKALYESDENCEVDPSKCSSSELIDHQSNLKMCCELAFCKIINSYCVFPRELKEVFASWKQQCLNRGKQDISERLISASLFLRFLCPAIMSPSLFNLMQEYPDDRTSRTLTLIAKVIQNLANFAKFGNKEEYMAFMNDFLEHEWGGMKRFLLEISNPDTISNTPGFDGYIDLGRELSVLHSLLWEVVSQLDKGENSFLQATVAKLGPLPRVLADITKSLTNPTPIQQQLRRFTEHNSSPNVSGSLSSGLQKIFEDPTDSDLHKLKSPSQDNTDSYFRGKTLLLVQQASSQSMTYSEKDERESSLPNGRSVSLMDLQDTHAAQVEHASVMLDVPIRLTGSQLSITQVASIKQLRETQSTPQSAPQVRRPLHPALNQPGGLQPLSFQNPVYHLNNPIPAMPKASIDSSLENLSTASSRSQSNSEDFKLSGPSNSSMEDFTKRSTQSEDFSRRHTVPDRHIPLALPRQNSTGQAQIRKVDQGGLGARAKAPPSLPHSASLRSTGSMSVVSAALVAEPVQNGSRSRQQSSSSRESPVPKVRAIQRQQTQQVQSPVDSATMSPVERTAAWVLNNGQYEEDVEETEQNLDEAKHAEKYEQEITKLKERLRVSSRRLEEYERRLLVQEQQMQKLLLEYKARLEDSEERLRRQQEEKDSQMKSIISRLMAVEEELKKDHAEMQAVIDAKQKIIDAQEKRIVSLDSANTRLMSALTQVKERYSMQVRNGISPTNPTKLSITENGEFKNSSC | – | – | NS3 | – | 3 | + |
| GOLGA2 (protein, UniProt Q08379 1-1002, looked up) Golgin subfamily A member 2: MWPQPRLPPRPAMSEETRQSKLAAAKKKLREYQQRNSPGVPTGAKKKKKIKNGSNPETTTSGGCHSPEDTPKDNAATLQPSDDTVLPGGVPSPGASLTSMAASQNHDADNVPNLMDETKTFSSTESLRQLSQQLNGLVCESATCVNGEGPASSANLKDLESRYQQLAVALDSSYVTNKQLNITIEKLKQQNQEITDQLEEEKKECHQKQGALREQLQVHIQTIGILVSEKAELQTALAHTQHAARQKEGESEDLASRLQYSRRRVGELERALSAVSTQQKKADRYNKELTKERDALRLELYKNTQSNEDLKQEKSELEEKLRVLVTEKAGMQLNLEELQKKLEMTELLLQQFSSRCEAPDANQQLQQAMEERAQLEAHLGQVMESVRQLQMERDKYAENLKGESAMWRQRMQQMSEQVHTLREEKECSMSRVQELETSLAELRNQMAEPPPPEPPAGPSEVEQQLQAEAEHLRKELEGLAGQLQAQVQDNEGLSRLNREQEERLLELERAAELWGEQAEARRQILETMQNDRTTISRALSQNRELKEQLAELQSGFVKLTNENMEITSALQSEQHVKRELGKKLGELQEKLSELKETVELKSQEAQSLQQQRDQYLGHLQQYVAAYQQLTSEKEVLHNQLLLQTQLVDQLQQQEAQGKAVAEMARQELQETQERLEAATQQNQQLRAQLSLMAHPGEGDGLDREEEEDEEEEEEEAVAVPQPMPSIPEDLESREAMVAFFNSAVASAEEEQARLRGQLKEQRVRCRRLAHLLASAQKEPEAAAPAPGTGGDSVCGETHRALQGAMEKLQSRFMELMQEKADLKERVEELEHRCIQLSGETDTIGEYIALYQSQRAVLKERHREKEEYISRLAQDKEEMKVKLLELQELVLRLVGDRNEWHGRFLAAAQNPADEPTSGAPAPQELGAANQQGDLCEVSLAGSVEPAQGEAREGSPRDNPTAQQIMQLLREMQNPRERPGLGSNPCIPFFYRADENDEVKITVI | 15 | – | NS5A | + | – | – |
| GPS2 (protein, UniProt Q13227 1-327, looked up) G protein pathway suppressor 2: MPALLERPKLSNAMARALHRHIMMERERKRQEEEEVDKMMEQKMKEEQERRKKKEMEERMSLEETKEQILKLEEKLLALQEEKHQLFLQLKKVLHEEEKRRRKEQSDLTTLTSAAYQQSLTVHTGTHLLSMQGSPGGHNRPGTLMAADRAKQMFGPQVLTTRHYVGSAAAFAGTPEHGQFQGSPGGAYGTAQPPPHYGPTQPAYSPSQQLRAPSAFPAVQYLSQPQPQPYAVHGHFQPTQTGFLQPGGALSLQKQMEHANQQTGFSDSSSLRPMHPQALHPAPGLLASPQLPVQMQPAGKSGFAATSQPGPRLPFIQHSQNPRFYHK | 1 | – | NS5A | + | – | – |

Reference: US20110091994A1, “Methods for Screening Compounds for Treating and/or Preventing an Hepatitis C Virus Infection” (priority 2008, published 2011)
